Measurements from US20040229289A1, “Antigen binding peptides (abtides) from peptide libraries” (Cytogen Corporation, priority 1994, published 2004).

T1: PEM peptide (human)
T1 peptide: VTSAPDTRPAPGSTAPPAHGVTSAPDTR


These molecules were tested against T2, PEM (Homo sapiens, UniProt P15941) (assay: ELISA of phage from the MP-1 saturation mutagenesis library for binding to PEM). Conditions: phage-displayed abtide from MP-1 saturation mutagenesis library.
T2 construct: made in house; host or cells: chemical peptide synthesis
Experimental: A saturation mutagenesis library based on one of the PEM abtides, MP-1, was constructed. Nucleotide sequences encoding the MP-1 abtide were synthesized using a doping scheme similar to that described in Section 5.3 whereby each nucleotide was contaminated with 9% of each of the other 3 nucleotides (e.g. G=73% G, 9% A, 9% T, 9° C.). The resulting mutagenic oligonucleotides were used to construct a library by TSAR library methods described above (see FIG. 13).
The resulting library was screened to identify phage expressing abtides capable of binding to PEM. The binding of isolated phage to PEM was confirmed by an ELISA assay.

| Molecule | binding of isolated phage to PEM (ELISA) |
| --- | --- |
| REPVVGGKPWCRGPGGLRWRGCGKSQFDKIITLSRDNRRDKRP [E83] | Negative Binding Sequences |
| VSRAWSGKPRLMGSHGLNCPGCGKGHSGIMFIPDPAGSANTPP [E67] | Positive Binding Sequences |
| VSTGWSGTPRWCAPGGKQGSGCGNGPRWTTLTPDLGGTRKYGP (phage displayed) [E4] | Positive Binding Sequences |
| GSSGWKVKHRCGGPGTLQRPGCGNLPLGHTFPPTRGGSHMEGA [E84] | Positive Binding Sequences |
| GLSLVRGDSWGSGAGGWKRHGCGHGPMYNPQTPARGGSCTRNT [E66] | Positive Binding Sequences |
| GSPVWSGDNRWRGSSPLKRPGCGNGAKCNTLKDNRKDSRKTKH (phage displayed) [E33] | Positive Binding Sequences |
| GSALLTSKGCVRGPGGLMRPGCGNDRLGKSSTYAHGGWIKTGP (phage displayed) [E21] | Positive Binding Sequences |
| GAPVWRGNPRWRGPGGFKWPGCGNGPMCNTFTPARGGSRNNGP [MP-1] | Positive Binding Sequences |
| GAPVVGDILWCSGARGAKWPGCGKGPTNKTFSHSRGGTQKSGL [E90] | Positive Binding Sequences |
| AGRELRQDEGEGGAGADVARLREGPICSTFTPARGGSCPSGL (phage displayed) [E43] | Negative Binding Sequences |
| GAPLWCEKLSGTGSGGFKWPGCGSGPTYNTFTPARVGSDNKWP [E7] | Positive Binding Sequences |
| GAPVWRGNRWCSDNGELERPGCGYGPRFNILPPGRGNSRKPSP [E73] | Positive Binding Sequences |
| STPGCSGYSGSGDPRCLTCTACGNGHTRKTLTPAHGRSTHKEP [E72] | Negative Binding Sequences |
| GAPVSRCKPACGGFWGVNWPGCGNASMCKTFTNGHGVSSDNGH (phage displayed) [E22] | Positive Binding Sequences |
| EALVCRGKPPWSGPAGLLWQGCGTGPVSRTFTSAQGRSRNKTS [E88] | Positive Binding Sequences |
| GDPECRGKPRGRWTGSLACTGCGNGPNSKICTRARGVSRNKGP [E60] | Negative Binding Sequences |

| Molecule | binding of isolated phage to PEM (ELISA) |
| --- | --- |
| GAHGYKNGSTCTGLGGWRCRGCGKGAMCNNPSPAGGAYHNQGP (phage displayed) [E29] | Positive Binding Sequences |
| CAPMWSGKPPWCVGGGVKFRGCGNRPDCNIITPRLVESRDKAL [E68] | Positive Binding Sequences |
| GPPVWSAKSRWTGTGVLNWPGCGKVPSCSTYTPSRDRSRKSDP (phage displayed) [E16] | Positive Binding Sequences |
| G PQGSEHQCCSGHWGLKFPGCGNGPICNNFTALRGASRKNGP (GPQGSEHQCCSGHWGLKFPGCGNGPICNNFTALRGASRKNGP) [E62] | Positive Binding Sequences |
| SSGVGNGKPRSWAPDALNGGCGNIQFANTITPDRGGSCNQTL (phage displayed) [E24] | Negative Binding Sequences |
| GTRVPPGFALRGGRDGLSWAGCGKAPISKTYTSARGRSRKKGS (phage displayed) [E3] | Negative Binding Sequences |
| QARVSMAISCRSGPSDLMHQGCGYGPRCNPDTTDSGGSHTNTP (phage displayed) [E49] | Negative Binding Sequences |
| GSPVWMGSTRWTGHGWFRSQGCGNVPRTNSCAPAGKDSQNKGP [E65] | Positive Binding Sequences |
| GAPLWQGDPADEVLGGSMIPGCGIGALSQTFTPTPGGSRKNVT (phage displayed) [E37] | Negative Binding Sequences |
| GSSVCGGQPSGRGFGGLPGPGCGNGPTSNTLTSARGGFPNKGL (phage displayed) [E27] | Negative Binding Sequences |
| RSAVSEGKPREIVPGGCMWPGCGNGRKSNTLTHGPEQFQEIEP (phage displayed) [E15] | Negative Binding Sequences |
| GEPVWCRHSGGRVQGGLDWLGCGDGPLRYTVTPARGGPSKHGP [E64] | Positive Binding Sequences |
| ADPVCSRKPDGGGLRGLRWPGCGKGPILYNVTAARGGSRNNGP [E70] | Positive Binding Sequences |
| GQPECRITSGCCGTDGNKWLGCGKVDMCNTLNPAVGCHGTNGS (phage displayed) [E34] | Negative Binding Sequences |
| G PLLPGEAAVHGARGLMRSGCGNGPTWNRLTAACRDSRNKGP (GPLLPGEAAVHGARGLMRSGCGNGPTWNRLTAACRDSRNKGP; phage displayed; extra N-terminal G) [E44] | Positive Binding Sequences |
| GPRSWMGQPRGSDAGSCKWAGCGDAPMWRASTPGHGGPPNRGS [E85] | Positive Binding Sequences |

Biological target: T1, PEM peptide
Assay: phage ELISA on PEM
Conditions: not given

| Molecule | binding result |
| --- | --- |
| GAPLWQGDPADEVLGGSMIPGCGIGALSQTFTPTPGGSRKNVT [E37] | no binding |
| GLSLVRGDSWGSGAGGWKRHGCGHGPMYNPQTPARGGSCTRNT [E66] | binds |
| SSGVGNGKPRSWAPDALNGGCGNIQFANTITPDRGGSCNQTL [E24] | no binding |
| GSSVCGGQPSGRGFGGLPGPGCGNGPTSNTLTSARGGFPNKGL [E27] | no binding |
| VSRAWSGKPRLMGSHGLNCPGCGKGHSGIMFIPDPAGSANTPP [E67] | binds |
| CAPMWSGKPPWCVGGGVKFRGCGNRPDCNIITPRLVESRDKAL [E68] | binds |
| GSALLTSKGCVRGPGGLMRPGCGNDRLGKSSTYAHGGWIKTGP [E21] | binds |
| GSSGWKVKHRCGGPGTLQRPGCGNLPLGHTFPPTRGGSHMEGA [E84] | binds |
| GAHGYKNGSTCTGLGGWRCRGCGKGAMCNNPSPAGGAYHNQGP [E29] | binds |
| GAPLWCEKLSGTGSGGFKWPGCGSGPTYNTFTPARVGSDNKWP [E7] | binds |
| EALVCRGKPPWSGPAGLLWQGCGTGPVSRTFTSAQGRSRNKTS [E88] | binds |
| GEPVWCRHSGGRVQGGLDWLGCGDGPLRYTVTPARGGPSKHGP [E64] | binds |
| GPPVWSAKSRWTGTGVLNWPGCGKVPSCSTYTPSRDRSRKSDP [E16] | binds |
| AGRELRQDEGEGGAGADVARLREGPICSTFTPARGGSCPSGL [E43] | no binding |
| VSTGWSGTPRWCAPGGKQGSGCGNGPRWTTLTPDLGGTRKYGP [E4] | binds |
| GSPVWSGDNRWRGSSPLKRPGCGNGAKCNTLKDNRKDSRKTKH [E33] | binds |
| GQPECRITSGCCGTDGNKWLGCGKVDMCNTLNPAVGCHGTNGS [E34] | no binding |
| RSAVSEGKPREIVPGGCMWPGCGNGRKSNTLTHGPEQFQEIEP [E15] | no binding |
| GPRSWMGQPRGSDAGSCKWAGCGDAPMWRASTPGHGGPPNRGS [E85] | binds |
| GAPVSRCKPACGGFWGVNWPGCGNASMCKTFTNGHGVSSDNGH [E22] | binds |
| GSPVWMGSTRWTGHGWFRSQGCGNVPRTNSCAPAGKDSQNKGP [E65] | binds |
| GAPVWRGNRWCSDNGELERPGCGYGPRFNILPPGRGNSRKPSP [E73] | binds |
| ADPVCSRKPDGGGLRGLRWPGCGKGPILYNVTAARGGSRNNGP [E70] | binds |
| GTRVPPGFALRGGRDGLSWAGCGKAPISKTYTSARGRSRKKGS [E3] | no binding |
| GAPVVGDILWCSGARGAKWPGCGKGPTNKTFSHSRGGTQKSGL [E90] | binds |
